# From patent US20200024322A1 (Eli Lilly, published 2020)
# Residue numbers refer to the chain shown, from its start. Numbered stars: 1 amine (or outer) side, 2 acyl side, 3 side chain; on linkers, the order of the positions; unused ones are H or OH. Square brackets hold non-standard residues; d marks the D form. Side chains are listed from the residue outwards. Ends that are not written are not given here. * marks the point of attachment. C18 diacid = O=C(O)CCCCCCCCCCCCCCCCC(=O)*; γGlu = O=C(O)[C@H](CCC(=O)[*:2])N[*:1]; AEEA = NCCOCCOCC(=O)O; Aib = CC(C)(N)C(=O)O
# B1: Example 313 (peptide)
# peptide: YXEGTXTSDYSILLDKKAQXAFIEYLIAGGPSSG
# modifications: Aib2; αMeF(2F)6; K17((2-[2-(2-Amino-ethoxy)-ethoxy]-acetyl)2-(γ-Glu)-CO-(CH2)16-CO2H); Aib20; C-terminal NH2
# B2: Example 308 (peptide)
# peptide: B1 peptide with A21E, A28E
# modifications: Aib2; αMeF6; K17((2-[2-(2-Amino-ethoxy)-ethoxy]-acetyl)2-(γ-Glu)-CO-(CH2)16-CO2H); Aib20; C-terminal NH2
# B3: Example 314 (peptide)
# peptide: B1 peptide with A21E
# modifications: Aib2; αMeF(2F)6; K17((2-[2-(2-Amino-ethoxy)-ethoxy]-acetyl)2-(γ-Glu)-CO-(CH2)16-CO2H); Aib20; C-terminal NH2
# B4: Example 307 (peptide)
# peptide: B1 peptide with K16E, A28E
# modifications: Aib2; αMeF6; K17((2-[2-(2-Amino-ethoxy)-ethoxy]-acetyl)2-(γ-Glu)-CO-(CH2)16-CO2H); Aib20; C-terminal NH2
# B5: Example 312 (peptide)
# peptide: B1 peptide with A21E, A28E
# modifications: Aib2; αMeF(2F)6; K17((2-[2-(2-Amino-ethoxy)-ethoxy]-acetyl)2-(γ-Glu)-CO-(CH2)16-CO2H); Aib20; C-terminal NH2
# B6: Example 311 (peptide)
# peptide: B1 peptide with K16E, A28E
# modifications: Aib2; αMeF(2F)6; K17((2-[2-(2-Amino-ethoxy)-ethoxy]-acetyl)2-(γ-Glu)-CO-(CH2)16-CO2H); Aib20; C-terminal NH2
# B7: Example 310 (peptide)
# peptide: B1 peptide with A21E
# modifications: Aib2; αMeF6; K17((2-[2-(2-Amino-ethoxy)-ethoxy]-acetyl)2-(γ-Glu)-CO-(CH2)16-CO2H); Aib20; C-terminal NH2
# B8: Example 336 (peptide)
# peptide: XXEGTXTSDYSIXLDKKAQXAFIEYLIEGGPSSGAPPPS
# modifications: D-Tyr1; Aib2; αMeF(2F)6; αMeL13; K17((2-[2-(2-Amino-ethoxy)-ethoxy]-acetyl)2-(γ-Glu)-CO-(CH2)18-CO2H); Aib20; C-terminal NH2
# B9: Example 358 (peptide)
# peptide: B8 peptide with X6F, K16X, I23V, E28A
# modifications: D-Tyr1; Aib2; αMeL13; Orn16; K17((2-[2-(2-Amino-ethoxy)-ethoxy]-acetyl)2-(γ-Glu)-CO-(CH2)18-CO2H); Aib20; C-terminal NH2
# B10: Example 329 (peptide)
# peptide: B8 peptide with X13L
# modifications: D-Tyr1; Aib2; αMeF6; K17((2-[2-(2-Amino-ethoxy)-ethoxy]-acetyl)2-(γ-Glu)-CO-(CH2)18-CO2H); Aib20; C-terminal NH2
# B11: Example 335 (peptide)
# peptide: B8 peptide
# modifications: D-Tyr1; Aib2; αMeF6; αMeL13; K17((2-[2-(2-Amino-ethoxy)-ethoxy]-acetyl)2-(γ-Glu)-CO-(CH2)18-CO2H); Aib20; C-terminal NH2
# B12: Example 346 (peptide)
# peptide: B8 peptide with X6F, K16X, E28A
# modifications: D-Tyr1; Aib2; αMeL13; Orn16; K17((2-[2-(2-Amino-ethoxy)-ethoxy]-acetyl)2-(γ-Glu)-CO-(CH2)18-CO2H); Aib20; C-terminal NH2
# B13: Example 360 (peptide)
# peptide: B8 peptide with X6F, K16X, I23V
# modifications: D-Tyr1; Aib2; αMeL13; Orn16; K17((2-[2-(2-Amino-ethoxy)-ethoxy]-acetyl)2-(γ-Glu)-CO-(CH2)18-CO2H); Aib20; C-terminal NH2
# B14: Example 305 (peptide)
# peptide: B1 peptide with X6F, L13X
# modifications: Aib2; αMeL13; K17((2-[2-(2-Amino-ethoxy)-ethoxy]-acetyl)2-(γ-Glu)-CO-(CH2)16-CO2H); Aib20; C-terminal NH2
# B15: Example 303 (peptide)
# peptide: B1 peptide with X6F, L13X, K16E, A28E
# modifications: Aib2; αMeL13; K17((2-[2-(2-Amino-ethoxy)-ethoxy]-acetyl)2-(γ-Glu)-CO-(CH2)16-CO2H); Aib20; C-terminal NH2
# B16: Example 367 (peptide)
# peptide: YXEGTFTSDYSIXLDKKAQXEFIEXLIAGGPSSGAPPPS
# modifications: Aib2; αMeL13; K17((2-[2-(2-Amino-ethoxy)-ethoxy]-acetyl)2-(γ-Glu)-CO-(CH2)18-CO2H); Aib20; αMeY25; C-terminal NH2
# B17: Example 316 (peptide)
# peptide: Y[Aib]EGTFTSDYSILLDKK([AEEA-AEEA-γGlu-C18 diacid])AQ[Aib]AFIEYLIAGGPSSGAPPPS-NH2
# modifications: N-terminus assumed
# SMILES: CC[C@H](C)[C@H](NC(=O)[C@H](CC(C)C)NC(=O)[C@H](Cc1ccc(O)cc1)NC(=O)[C@H](CCC(=O)O)NC(=O)[C@@H](NC(=O)[C@H](Cc1ccccc1)NC(=O)[C@H](C)NC(=O)C(C)(C)NC(=O)[C@H](CCC(N)=O)NC(=O)[C@H](C)NC(=O)[C@H](CCCCNC(=O)COCCOCCNC(=O)COCCOCCNC(=O)CC[C@H](NC(=O)CCCCCCCCCCCCCCCCC(=O)O)C(=O)O)NC(=O)[C@H](CCCCN)NC(=O)[C@H](CC(=O)O)NC(=O)[C@H](CC(C)C)NC(=O)[C@H](CC(C)C)NC(=O)[C@@H](NC(=O)[C@H](CO)NC(=O)[C@H](Cc1ccc(O)cc1)NC(=O)[C@H](CC(=O)O)NC(=O)[C@H](CO)NC(=O)[C@@H](NC(=O)[C@H](Cc1ccccc1)NC(=O)[C@@H](NC(=O)CNC(=O)[C@H](CCC(=O)O)NC(=O)C(C)(C)NC(=O)[C@@H](N)Cc1ccc(O)cc1)[C@@H](C)O)[C@@H](C)O)[C@@H](C)CC)[C@@H](C)CC)C(=O)N[C@@H](C)C(=O)NCC(=O)NCC(=O)N1CCC[C@H]1C(=O)N[C@@H](CO)C(=O)N[C@@H](CO)C(=O)NCC(=O)N[C@@H](C)C(=O)N1CCC[C@H]1C(=O)N1CCC[C@H]1C(=O)N1CCC[C@H]1C(=O)N[C@@H](CO)C(N)=O
# B18: Example 325 (peptide)
# peptide: B8 peptide with X1Y, X13L
# modifications: Aib2; αMeF(2F)6; K17((2-[2-(2-Amino-ethoxy)-ethoxy]-acetyl)2-(γ-Glu)-CO-(CH2)18-CO2H); Aib20; C-terminal NH2
# Target: T1, human GIP receptor (human, UniProt P48546 22-466)
# T1 construct: whole, on cells; also called hGIPR; hGIP-R
# T1 sequence (looked up): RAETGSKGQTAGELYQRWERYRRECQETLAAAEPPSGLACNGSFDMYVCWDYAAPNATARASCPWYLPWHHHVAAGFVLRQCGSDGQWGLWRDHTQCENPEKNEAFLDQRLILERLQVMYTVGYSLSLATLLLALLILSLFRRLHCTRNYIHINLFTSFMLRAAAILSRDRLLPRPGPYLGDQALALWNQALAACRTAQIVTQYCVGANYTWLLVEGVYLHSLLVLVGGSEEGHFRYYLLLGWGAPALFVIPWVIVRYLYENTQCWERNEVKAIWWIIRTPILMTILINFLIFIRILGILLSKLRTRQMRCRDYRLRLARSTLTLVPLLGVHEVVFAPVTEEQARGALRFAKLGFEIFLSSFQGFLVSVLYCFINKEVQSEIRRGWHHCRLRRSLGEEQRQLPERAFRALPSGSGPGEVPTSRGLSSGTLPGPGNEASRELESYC
# Assay: [125I]-GIP competition SPA, hGIPR membranes
row,Binder,Ki [nM]
1,B1,0.0261
2,B2,0.0288
3,B3,0.027
4,B4,0.0773
5,B5,0.0348
6,B6,0.0497
7,B7,0.0315
8,B8,0.0277
9,B9,0.0636
10,B10,0.0439
11,B11,0.0444
12,B12,0.0559
13,B13,0.128
14,B14,0.025
15,B15,0.058
16,B16,0.0282
17,B17,0.0418
18,B18,0.0209

# Target: T2, human glucagon receptor (human, UniProt P47871 26-477)
# T2 construct: whole, on cells; also called hGcgR; GcgR
# T2 sequence (P47871 26-477): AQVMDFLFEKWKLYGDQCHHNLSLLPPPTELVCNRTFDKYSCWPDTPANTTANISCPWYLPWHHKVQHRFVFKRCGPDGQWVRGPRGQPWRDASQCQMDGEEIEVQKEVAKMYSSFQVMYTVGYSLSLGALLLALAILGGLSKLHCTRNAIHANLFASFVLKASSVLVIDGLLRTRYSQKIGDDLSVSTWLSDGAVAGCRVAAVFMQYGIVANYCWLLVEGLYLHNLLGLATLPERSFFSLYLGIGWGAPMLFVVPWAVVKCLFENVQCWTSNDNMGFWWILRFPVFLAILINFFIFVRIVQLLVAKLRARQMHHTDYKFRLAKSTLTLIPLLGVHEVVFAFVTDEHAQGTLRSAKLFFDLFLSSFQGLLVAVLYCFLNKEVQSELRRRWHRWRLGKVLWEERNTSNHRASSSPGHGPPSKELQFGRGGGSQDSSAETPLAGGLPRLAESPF
# Assay: [125I]-Gcg competition SPA, hGcgR membranes
row,Binder,Ki [nM]
1,B1,27.6
2,B2,94.2
3,B3,116
4,B4,117
5,B5,106
6,B6,115
7,B7,174
8,B8,17.1
9,B9,915
10,B10,17
11,B11,27.1
12,B12,310
13,B13,485
14,B14,352
15,B15,502
16,B16,777
17,B17,654
18,B18,13

# Target: T3, human GLP-1 receptor (human, UniProt P43220 24-463)
# T3 construct: whole, on cells; also called hGLP-1R; hGLP1R
# Assay: [125I]-GLP-1 competition SPA, hGLP-1R membranes
# Outline: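 Kᵢ values are geometric means (SEM) over replicates run on separate days, derived from IC₅₀ of four-parameter curve fits. Buffer: HEPES 25 mM pH 7.4 with CaCl₂ 2.5 mM, MgCl₂ 1 mM, bacitracin 0.1%, TWEEN-20 0.003%, EDTA-free protease inhibitors.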
row,Binder,Ki [nM]
1,B1,0.815
2,B2,1.01
3,B3,0.717
4,B4,5.1
5,B5,1.63
6,B6,11.5
7,B7,1.7
8,B8,2.44
9,B9,1.37
10,B10,3.28
11,B11,2.54
12,B12,1.67
13,B13,1.74
14,B14,0.83
15,B15,3.69
16,B16,0.809
17,B17,0.957
18,B18,0.475
